Measurements published in PMC8567388 (iScience, 2021).
One block for each binder: values may come before it. Ends that are not written are not given here.

Legend:
PSD-95 61-724 6xHis [1] = biological target: T1, PSD-95 61-724 6xHis (human, UniProt P78352 61-724); assay: fluorescence polarisation
[2] = biological target: T2, PSD-95 61-724 6xHis pSer73 (human, UniProt P78352 61-724, phosphoserine at 73); assay: co-sedimentation
[3] = biological target: T3, PSD-95 61-724 6xHis pSer142 (human, UniProt P78352 61-724, phosphoserine at 142); assay: co-sedimentation
PSD-95 61-724 6xHis [4] = biological target: T1, PSD-95 61-724 6xHis; assay: co-sedimentation
[5] = biological target: T3, PSD-95 61-724 6xHis pSer142; assay: fluorescence polarisation
[6] = biological target: T2, PSD-95 61-724 6xHis pSer73; assay: fluorescence polarisation

Binder: {TAMRA}-NNGNTANRRTTPV [Peptide ligand: Stargazin (TAMRA-NNG-NTANRRTTPV)]
Kd (PSD-95 61-724 6xHis [1]): 2.7 µM

B1: GluN2B cytoplasmic tail (aa 1170-1482) (domain or fragment)
chain: GGPCTNRSHLKHGTGEKHGVVGGVPAPWEKNLTNVDWEDRSGGNFCRSCPSKLHNYSSTVAGQNSGRQACIRCEACKKAGNLYDISEDNSLQELDQPAAPVAVTSNASSTKYPQSPTNSKAQKKNRNKLRRQHSYDTFVDLQKEEAALAPRSVSLKDKGRFMDGSPYAHMFEMPAGESSFANKSSVPTAGHHHNNPGSGYMLSKSLYPDRVTQNPFIPTFGDDQCLLHGSKSYFFRQPTVAGASKTRPDFRALVTNKPVVVTLHGAVPGRFQKDICIGNQSNPCVPNNKNPRAFNGSSNGHVYEKLSSIESDV
binding result [2]: binds
binding result [3]: binds
binding result (PSD-95 61-724 6xHis [4]): binds

Binder: {TAMRA}-NNGYEKLSSIESDV [Peptide ligand: GluN2B (TAMRA-NNG-YEKLSSIESDV)]
Kd (PSD-95 61-724 6xHis [1]): 1.2 µM

Further lines, results first:

binding result [5]: binds
binding result (PSD-95 61-724 6xHis [1]): binds
Binder: {TAMRA}-NNGSNAKAVETDV [Peptide ligand: Kv1.4 (TAMRA-NNG-SNAKAVETDV)]

binding result [6]: binds
binding result (PSD-95 61-724 6xHis [1]): binds
Binder: {TAMRA}-NNGKKMPSIESDV [Peptide ligand: GluN2A (TAMRA-NNG-KKMPSIESDV)]

binding result [5]: binds
binding result (PSD-95 61-724 6xHis [1]): binds
Binder: {TAMRA}-NNGPAGKHMVTEV [Peptide ligand: Kv1.7 (TAMRA-NNG-PAGKHMVTEV)]
